Results taken from IntAct's records for PubMed 31515488.

B1: Isoform 1 of Segment polarity protein dishevelled homolog DVL-3 (Homo sapiens), Q92997-1 (parent)
chain: MGETKIIYHLDGQETPYLVKLPLPAERVTLADFKGVLQRPSYKFFFKSMDDDFGVVKEEISDDNAKLPCFNGRVVSWLVSAEGSHPDPAPFCADNPSELPPPMERTGGIGDSRPPSFHPHAGGGSQENLDNDTETDSLVSAQRERPRRRDGPEHATRLNGTAKGERRREPGGYDSSSTLMSSELETTSFFDSDEDDSTSRFSSSTEQSSASRLMRRHKRRRRKQKVSRIERSSSFSSITDSTMSLNIITVTLNMEKYNFLGISIVGQSNERGDGGIYIGSIMKGGAVAADGRIEPGDMLLQVNEINFENMSNDDAVRVLREIVHKPGPITLTVAKCWDPSPRGCFTLPRSEPIRPIDPAAWVSHTAAMTGTFPAYGMSPSLSTITSTSSSITSSIPDTERLDDFHLSIHSDMAAIVKAMASPESGLEVRDRMWLKITIPNAFIGSDVVDWLYHNVEGFTDRREARKYASNLLKAGFIRHTVNKITFSEQCYYIFGDLCGNMANLSLHDHDGSSGASDQDTLAPLPHPGAAPWPMAFPYQYPPPPHPYNPHPGFPELGYSYGGGSASSQHSEGSRSSGSNRSGSDRRKEKDPKAGDSKSGGSGSESDHTTRSSLRGPRERAPSERSGPAASEHSHRSHHSLASSLRSHHTHPSYGPPGVPPLYGPPMLMMPPPPAAMGPPGAPPGRDLASVPPELTASRQSFRMAMGNPSEFFVDVM
B2: Protein LDOC1 (Homo sapiens), O95751 (parent)
chain: MVDELVLLLHALLMRHRALSIENSQLMEQLRLLVCERASLLRQVRPPSCPVPFPETFNGESSRLPEFIVQTASYMLVNENRFCNDAMKVAFLISLLTGEAEEWVVPYIEMDSPILGDYRAFLDEMKQCFGWDDDEDDDDEEEEDDY
partner: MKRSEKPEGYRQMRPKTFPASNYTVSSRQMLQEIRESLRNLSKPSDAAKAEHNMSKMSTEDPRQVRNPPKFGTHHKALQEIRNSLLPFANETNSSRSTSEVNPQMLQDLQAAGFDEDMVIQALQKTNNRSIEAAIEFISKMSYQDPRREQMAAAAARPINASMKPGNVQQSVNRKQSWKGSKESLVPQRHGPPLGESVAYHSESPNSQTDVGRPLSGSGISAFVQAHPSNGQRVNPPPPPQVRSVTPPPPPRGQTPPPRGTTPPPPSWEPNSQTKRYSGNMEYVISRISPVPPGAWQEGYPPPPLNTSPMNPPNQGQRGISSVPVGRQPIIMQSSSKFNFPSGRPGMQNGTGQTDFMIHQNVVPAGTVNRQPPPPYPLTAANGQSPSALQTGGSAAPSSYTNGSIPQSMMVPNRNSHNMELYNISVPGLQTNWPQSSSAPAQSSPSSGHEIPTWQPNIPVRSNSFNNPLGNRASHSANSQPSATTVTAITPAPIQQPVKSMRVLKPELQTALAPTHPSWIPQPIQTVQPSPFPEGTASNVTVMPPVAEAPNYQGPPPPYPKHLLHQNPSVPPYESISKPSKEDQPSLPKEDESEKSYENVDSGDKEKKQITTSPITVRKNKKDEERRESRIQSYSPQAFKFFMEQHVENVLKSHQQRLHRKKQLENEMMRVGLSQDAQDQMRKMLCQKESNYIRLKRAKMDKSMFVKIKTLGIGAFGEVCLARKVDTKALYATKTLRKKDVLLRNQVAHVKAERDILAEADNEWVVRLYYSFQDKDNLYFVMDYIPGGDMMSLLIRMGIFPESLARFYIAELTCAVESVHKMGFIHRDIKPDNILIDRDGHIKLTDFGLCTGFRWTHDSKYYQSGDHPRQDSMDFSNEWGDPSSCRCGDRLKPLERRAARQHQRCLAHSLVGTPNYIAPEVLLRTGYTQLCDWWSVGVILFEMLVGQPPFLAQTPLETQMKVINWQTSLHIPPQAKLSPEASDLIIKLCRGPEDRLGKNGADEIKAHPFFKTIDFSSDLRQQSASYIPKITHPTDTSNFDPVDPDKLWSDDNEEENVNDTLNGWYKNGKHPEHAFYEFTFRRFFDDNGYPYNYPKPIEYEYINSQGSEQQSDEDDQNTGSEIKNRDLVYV
B3: Cyclin-dependent kinase 4 (Homo sapiens), P11802 (parent)
chain: MATSRYEPVAEIGVGAYGTVYKARDPHSGHFVALKSVRVPNGGGGGGGLPISTVREVALLRRLEAFEHPNVVRLMDVCATSRTDREIKVTLVFEHVDQDLRTYLDKAPPPGLPAETIKDLMRQFLRGLDFLHANCIVHRDLKPENILVTSGGTVKLADFGLARIYSYQMALTPVVVTLWYRAPEVLLQSTYATPVDMWSVGCIFAEMFRRKPLFCGNSEADQLGKIFDLIGLPPEDDWPRDVSLPRGAFPPRGPRPVQSVVPEMEESGAQLLLEMLTFNPHKRISAFRALQHSYLHKDEGNPE
partner: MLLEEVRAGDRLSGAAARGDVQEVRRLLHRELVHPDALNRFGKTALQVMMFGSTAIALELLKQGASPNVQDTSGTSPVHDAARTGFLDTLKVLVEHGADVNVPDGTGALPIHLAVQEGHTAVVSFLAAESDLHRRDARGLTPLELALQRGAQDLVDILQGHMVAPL
B4: Tuftelin-interacting protein 11 (Homo sapiens), Q9UBB9 (parent)
chain: MSLSHLYRDGEGRIDDDDDERENFEITDWDLQNEFNPNRQRHWQTKEEATYGVWAERDSDDERPSFGGKRARDYSAPVNFISAGLKKGAAEEAELEDSDDEEKPVKQDDFPKDFGPRKLKTGGNFKPSQKGFAGGTKSFMDFGSWERHTKGIGQKLLQKMGYVPGRGLGKNAQGIINPIEAKQRKGKGAVGAYGSERTTQSMQDFPVVDSEEEAEEEFQKELSQWRKDPSGSKKKPKYSYKTVEELKAKGRISKKLTAPQKELSQVKVIDMTGREQKVYYSYSQISHKHNVPDDGLPLQSQQLPQSGKEAKAPGFALPELEHNLQLLIDLTEQEIIQNDRQLQYERDMVVNLFHELEKMTEVLDHEERVISNLSKVLEMVEECERRMQPDCSNPLTLDECARIFETLQDKYYEEYRMSDRVDLAVAIVYPLMKEYFKEWDPLKDCTYGTEIISKWKSLLENDQLLSHGGQDLSADAFHRLIWEVWMPFVRNIVTQWQPRNCDPMVDFLDSWVHIIPVWILDNILDQLIFPKLQKEVENWNPLTDTVPIHSWIHPWLPLMQARLEPLYSPIRSKLSSALQKWHPSDSSAKLILQPWKDVFTPGSWEAFMVKNIVPKLGMCLGELVINPHQQHMDAFYWVIDWEGMISVSSLVGLLEKHFFPKWLQVLCSWLSNSPNYEEITKWYLGWKSMFSDQVLAHPSVKDKFNEALDIMNRAVSSNVGAYMQPGARENIAYLTHTERRKDFQYEAMQERREAENMAQRGIGVAASSVPMNFKDLIETKAEEHNIVFMPVIGKRHEGKQLYTFGRIVIYIDRGVVFVQGEKTWVPTSLQSLIDMAK
partner: B2 partner
B5: Protein FAM168A (Homo sapiens), Q92567 (parent)
chain: MNPVYSPVQPGAPYGNPKNMAYTGYPTAYPAAAPAYNPSLYPTNSPSYAPEFQFLHSAYATLLMKQAWPQNSSSCGTEGTFHLPVDTGTENRTYQASSAAFRYTAGTPYKVPPTQSNTAPPPYSPSPNPYQTAMYPIRSAYPQQNLYAQGAYYTQPVYAAQPHVIHHTTVVQPNSIPSAIYPAPVAAPRTNGVAMGMVAGTTMAMSAGTLLTTPQHTAIGAHPVSMPTYRAQGTPAYSYVPPHW
partner: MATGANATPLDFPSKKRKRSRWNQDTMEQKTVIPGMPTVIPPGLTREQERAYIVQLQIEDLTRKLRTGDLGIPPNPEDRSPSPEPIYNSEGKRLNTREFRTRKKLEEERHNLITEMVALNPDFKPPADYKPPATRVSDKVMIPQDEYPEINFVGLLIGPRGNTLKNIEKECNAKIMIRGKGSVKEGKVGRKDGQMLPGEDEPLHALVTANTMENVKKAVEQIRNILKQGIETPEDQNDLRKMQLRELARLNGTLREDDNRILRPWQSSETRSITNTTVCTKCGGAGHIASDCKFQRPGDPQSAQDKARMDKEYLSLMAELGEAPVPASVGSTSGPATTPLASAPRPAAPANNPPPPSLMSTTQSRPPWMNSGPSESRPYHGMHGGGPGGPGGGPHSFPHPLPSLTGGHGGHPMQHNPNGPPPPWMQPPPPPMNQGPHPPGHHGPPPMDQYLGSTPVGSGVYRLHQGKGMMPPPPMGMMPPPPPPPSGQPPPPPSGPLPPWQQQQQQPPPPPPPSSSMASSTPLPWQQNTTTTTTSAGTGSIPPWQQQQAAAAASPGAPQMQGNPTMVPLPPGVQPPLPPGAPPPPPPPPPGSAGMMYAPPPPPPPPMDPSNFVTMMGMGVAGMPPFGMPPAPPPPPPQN
B6: U3 small nucleolar RNA-associated protein 14 homolog C (Homo sapiens), Q5TAP6 (parent)
chain: MNVNQVAENLALSHQEELVDLPKNYPLSENEDEGDSDGERKHQKLLEAIISLDGKNRRKLAERSEASLKVSEFSVSSEGSGEKLGLADLLEPVKTSSSLATVKKQLNRVKSKKVVELPLNKEKIEQIHREVAFSKTSQVLSKWDPIILKNQQAEQLVFPLGKEQPAIAPIEHALSGWKARTPLEQEIFNLLHKNKQPVTDPLLTPMEKASLQAMSLEEAKMHRAELQRARALQSYYEAKARKEKKIKSKKYHKVVKKGKAKKALKEFEQLQKVNPTVALEEMEKIENARMMERMSLKHQNSGKWAKSKAIMAKYDLEARQAMQEQLAKNKELTQKLQVASESEEEEGGTEVEELLVPHVANEVQMNVDGPNPWMFRSCTSDTKEAATQEDPEQVPELAAHEVSASEAEERPVAEEEILLREFEERQSLRKRSELNQDAEPASSQETKDSSSQEVLSELRALSQKLKEKHQSRKQKASSEGTVPQVQREEPAPEEAEPLLLQRSERVQTLEELEELGKEDCFQNKELPRPVLEGQQSERTPNNRPDAPKEKKEKEQLINLQNFLTTQSPSVRSLAVPTIIEELEDEEERDQRQMIKEAFAGDDVIRDFLKEKREAVEASKPKDVDLTLPGWGEWGGVGLKPSAKKRRQFLIKAPEGPPRKDKNLPNVIISEKRNIHAAAHQVQVLPYPFTHHRQFERTIQTPIGSTWNTQRAFQKLTTPKVVTKPGHIIKPIKAEDVGYQSSSRSDLPVIQRNPKRITTRHNKEEKL
partner: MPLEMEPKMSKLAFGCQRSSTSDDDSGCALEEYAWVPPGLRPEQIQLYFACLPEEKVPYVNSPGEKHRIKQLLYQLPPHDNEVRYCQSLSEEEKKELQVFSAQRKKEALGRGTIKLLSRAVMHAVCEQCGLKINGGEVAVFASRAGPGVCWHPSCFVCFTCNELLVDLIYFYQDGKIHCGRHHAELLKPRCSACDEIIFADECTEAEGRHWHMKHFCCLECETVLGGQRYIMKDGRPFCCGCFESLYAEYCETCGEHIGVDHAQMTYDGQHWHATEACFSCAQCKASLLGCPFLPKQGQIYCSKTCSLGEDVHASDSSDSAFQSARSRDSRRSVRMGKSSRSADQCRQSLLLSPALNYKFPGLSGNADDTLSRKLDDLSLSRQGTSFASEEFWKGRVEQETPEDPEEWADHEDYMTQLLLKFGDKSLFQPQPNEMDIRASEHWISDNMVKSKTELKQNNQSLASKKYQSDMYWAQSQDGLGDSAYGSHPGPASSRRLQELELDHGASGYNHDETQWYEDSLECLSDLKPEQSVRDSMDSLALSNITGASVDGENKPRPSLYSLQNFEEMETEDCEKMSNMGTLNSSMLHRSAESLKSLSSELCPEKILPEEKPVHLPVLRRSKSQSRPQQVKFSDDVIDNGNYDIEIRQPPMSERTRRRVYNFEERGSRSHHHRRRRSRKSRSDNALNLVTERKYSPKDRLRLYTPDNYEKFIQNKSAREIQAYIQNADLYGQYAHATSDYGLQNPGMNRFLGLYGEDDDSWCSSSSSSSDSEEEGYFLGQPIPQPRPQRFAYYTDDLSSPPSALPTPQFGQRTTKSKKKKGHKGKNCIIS

Variants of: B1
Conditions: with kat7_human KAT7, O95251
Chain of kat7_human KAT7, O95251 (O95251 whole entry): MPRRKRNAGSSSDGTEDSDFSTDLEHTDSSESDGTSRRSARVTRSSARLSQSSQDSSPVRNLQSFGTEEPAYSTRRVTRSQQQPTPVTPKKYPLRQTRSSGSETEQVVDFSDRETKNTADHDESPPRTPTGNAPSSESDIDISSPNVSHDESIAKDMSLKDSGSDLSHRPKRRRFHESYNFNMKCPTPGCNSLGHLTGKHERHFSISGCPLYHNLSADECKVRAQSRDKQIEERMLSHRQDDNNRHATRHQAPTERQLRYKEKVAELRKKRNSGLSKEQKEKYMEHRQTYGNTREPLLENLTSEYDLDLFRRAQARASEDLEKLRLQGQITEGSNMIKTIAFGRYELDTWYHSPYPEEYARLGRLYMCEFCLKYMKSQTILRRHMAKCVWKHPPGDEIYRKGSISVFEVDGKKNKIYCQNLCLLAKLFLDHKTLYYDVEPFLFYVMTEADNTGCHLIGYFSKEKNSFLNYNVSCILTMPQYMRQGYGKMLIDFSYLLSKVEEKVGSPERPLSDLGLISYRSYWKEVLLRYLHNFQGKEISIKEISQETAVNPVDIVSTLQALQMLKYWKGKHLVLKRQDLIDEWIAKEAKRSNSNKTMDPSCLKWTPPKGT

| Variant | effect of a mutation on the interaction |
| --- | --- |
| R216T | with no effect |

Variants of: B2
Conditions: with lats1_human LATS1, O95835

| Variant | effect of a mutation on the interaction |
| --- | --- |
| L12H | disrupting interaction strength |

Variants of: B3
Conditions: with cdn2d_human CDKN2D

| Variant | effect of a mutation on the interaction |
| --- | --- |
| S52N | with no effect |

Variants of: B4
Conditions: with lats1_human LATS1, O95835

| Variant | effect of a mutation on the interaction |
| --- | --- |
| R8Q | with no effect |
| S688L | with no effect |

Variants of: B5
Conditions: with sf01_human SF1, Q15637

| Variant | effect of a mutation on the interaction |
| --- | --- |
| P122R | disrupting interaction strength |

Variants of: B6
Conditions: with pric1_human PRICKLE1, Q96MT3

| Variant | effect of a mutation on the interaction |
| --- | --- |
| T101A | disrupting interaction strength |
| V109D | with no effect |
| I170V | with no effect |
| K247E | with no effect |
| A652T | with no effect |
